In patent US20240034774A1 (Gilead, published 2024):
Numbering of substitutions follows the chain as printed.

B1: 1.1.16-1 (antibody, human IgG1, kappa)
heavy: QVQLLQSGAAVTKPGASVRVSCEASGYNIRDYFIHWWRQAPGQGLQWVGWINPKTGQPNNPRQFQGRVSLTRHASWDFDTFSFYMDLKALRSDDTAVYFCARQRSDYWDFDVWGSGTQVTVSSASTKGPSVFPLAPSSKSTSGGTAALGCLVKDYFPEPVTVSWNSGALTSGVHTFPAVLQSSGLYSLSSVVTVPSSSLGTQTYICNVNHKPSNTKVDKKVEPKSCDKTHTCPPCPAPELLAGPDVFLFPPKPKDTLMISRTPEVTCVVVDVSHEDPEVKFNWYVDGVEVHNAKTKPREEQYNSTYRVVSVLTVLHQDWLNGKEYKCKVSNKALPLPEEKTISKAKGQPREPQVYTLPPSREEMTKNQVSLTCLVKGFYPSDIAVEWESNGQPENNYKTTPPVLDSDGSFFLYSKLTVDKSRWQQGNVFSCSVLHEALHSHYTQKSLSLSPGK
light: DIQMTQSPSSLSASVGDTVTITCQANGYLNWYQQRRGKAPKLLIYDGSKLERGVPSRFSGRRWGQEYNLTINNLQPEDIATYFCQVYEFVGPGTRLDLKRTVAAPSVFIFPPSDEQLKSGTASVVCLLNNFYPREAKVQWKVDNALQSGNSQESVTEQDSKDSTYSLSSTLTLSKADYEKHKVYACEVTHQGLSSPVTKSFNRGEC
B2: 1.1.23-1 (antibody, human IgG1, kappa)
heavy: B1 heavy
light: B1 light with G91T, R95N
B3: 1.1.33-1 (antibody, human IgG1, kappa)
heavy: B1 heavy
light: B1 light with K49N, N68T, N72S, N73S, G91V, R95N, L98I
B4: 1.1.34-1 (antibody, human IgG1, kappa)
heavy: B1 heavy
light: B1 light with K49N, N68T, N72S, N73S, G91T, L98I
B5: 1.1.29-1 (antibody, human IgG1, kappa)
heavy: B1 heavy
light: B1 light with R95N, L96V, L98I
B6: 1.1.22-1 (antibody, human IgG1, kappa)
heavy: B1 heavy
light: B1 light with G91S, R95N
B7: 1.1.30-1 (antibody, human IgG1, kappa)
heavy: B1 heavy
light: B1 light with G91T, R95N, L96V, L98I
B8: 1.1.35-1 (antibody, human IgG1, kappa, V domains shown)
VH: QVQLLQSGAAVTKPGASVRVSCEASGYNIRDYFIHWWRQAPGQGLQWVGWINPKTGQPNNPRQFQGRVSLTRHASWDFDTFSFYMDLKALRSDDTAVYFCARQRSDYWDFDVWGSGTQVTVSS
VL: DIQMTQSPSSLSASVGDRVTITCQANGYLNWYQQKPGKAPKLLIYDGSNLETGVPSRFSGSRWGQEYTLTISSLQPEDIATYFCQVYEFVGPGTNLDIKR
B9: 1.1.18-1 (antibody, human IgG1, kappa)
heavy: B1 heavy
light: B1 light with G91S
B10: 1.2.1-1 (antibody, human IgG1, kappa)
heavy: B1 heavy with A10E, T12K, Q118M
light: B1 light with G91V
B11: 1.1.20-1 (antibody, human IgG1, kappa)
heavy: B1 heavy
light: B1 light with G91V, R95N
B12: 1.1.19-1 (antibody, human IgG1, kappa)
heavy: B1 heavy
light: B1 light with G91T
B13: 1.1.17-1 (antibody, human IgG1, kappa)
heavy: B1 heavy
light: B1 light with V90F
B14: 1.1.25-1 (antibody, human IgG1, kappa)
heavy: B1 heavy
light: B1 light with G91V, R95N, L96V
B15: 1.1.27-1 (antibody, human IgG1, kappa)
heavy: B1 heavy
light: B1 light with G91V, L96V, L98I
B16: 1.1.31-1 (antibody, human IgG1, kappa)
heavy: B1 heavy
light: B1 light with N68T, N72S, N73S, G91V, R95N
B17: 1.1.32-1 (antibody, human IgG1, kappa)
heavy: B1 heavy
light: B1 light with N68T, N72S, N73S, G91T
B18: 1.1.21-1 (antibody, human IgG1, kappa)
heavy: B1 heavy
light: B1 light with R95N
B19: 1.1.26-1 (antibody, human IgG1, kappa)
heavy: B1 heavy
light: B1 light with G91V, L98I
B20: 1.1.36-1 (antibody, human IgG1, kappa)
heavy: B1 heavy
light: DIQMTQSPSSLSASVGDRVTITCQANGYLNWYQQKPGKAPKLLIYDGSNLETGVPSRFSGSRWGQEYTLTISSLQPEDIATYFCQVYEFVTPGTNLDIKRTVAAPSVFIFPPSDEQLKSGTASVVCLLNNFYPREAKVQWKVDNALQSGNSQESVTEQDSKDSTYSLSSTLTLSKADYEKHKVYACEVTHQGLSSPVTKSFNRGEC
B21: 1.1.28-1 (antibody, human IgG1, kappa)
heavy: B1 heavy
light: B1 light with G91V, R95N, L96V, L98I
B22: 1.1.24-1 (antibody, human IgG1, kappa)
heavy: B1 heavy
light: B1 light with G91V, L96V

Target: gp120 CAAN (HIV (CAAN))
Assay: single-point ELISA at EC50 conc. of A-1

Binder | ELISA A450
B1 | 0.99 A450
B2 | 0.95 A450
B3 | 0.94 A450
B4 | 0.96 A450
B5 | 1.01 A450
B6 | 1.02 A450
B7 | 0.86 A450
B8 | 0.75 A450
B9 | 0.92 A450
B10 | 1.01 A450
B11 | 0.95 A450
B12 | 1.05 A450
B13 | 0.9 A450
B14 | 0.92 A450
B15 | 0.99 A450
B16 | 0.96 A450
B17 | 1.04 A450
B18 | 0.99 A450
B19 | 1.07 A450
B20 | 0.88 A450
B21 | 0.93 A450
B22 | 0.98 A450

Target: gp120 Bal (HIV (Bal))
Assay: single-point ELISA at EC50 conc. of A-1

Binder | ELISA A450
B1 | 1.06 A450
B2 | 0.9 A450
B3 | 0.87 A450
B4 | 0.9 A450
B5 | 0.91 A450
B6 | 0.88 A450
B7 | 0.9 A450
B8 | 0.96 A450
B9 | 0.92 A450
B10 | 0.93 A450
B11 | 0.94 A450
B12 | 1.03 A450
B13 | 1.02 A450
B14 | 0.9 A450
B15 | 0.97 A450
B16 | 0.87 A450
B17 | 0.93 A450
B18 | 0.98 A450
B19 | 0.96 A450
B20 | 0.93 A450
B21 | 0.98 A450
B22 | 0.88 A450

Target: gp120 SHIV SF162 P3 (SHIV SF162 P3)
Assay: single-point ELISA at EC50 conc. of A-1

Binder | ELISA A450
B1 | 1.05 A450
B2 | 1.07 A450
B3 | 0.84 A450
B4 | 0.83 A450
B5 | 0.9 A450
B6 | 1.04 A450
B7 | 0.98 A450
B8 | 0.72 A450
B9 | 0.94 A450
B10 | 1.02 A450
B11 | 1.01 A450
B12 | 1.12 A450
B13 | 1.07 A450
B14 | 1.01 A450
B15 | 1.1 A450
B16 | 0.87 A450
B17 | 0.89 A450
B18 | 1.03 A450
B19 | 1.09 A450
B20 | 0.72 A450
B21 | 1.09 A450
B22 | 0.97 A450

Target: BSA (UniProt P02769 25-607)
Assay: single-point ELISA, BSA control

Binder | ELISA A450
B1 | 0.06 A450
B2 | 0.06 A450
B3 | 0.07 A450
B4 | 0.06 A450
B5 | 0.06 A450
B6 | 0.06 A450
B7 | 0.06 A450
B8 | 0.08 A450
B9 | 0.06 A450
B10 | 0.07 A450
B11 | 0.07 A450
B12 | 0.06 A450
B13 | 0.06 A450
B14 | 0.07 A450
B15 | 0.06 A450
B16 | 0.06 A450
B17 | 0.06 A450
B18 | 0.06 A450
B19 | 0.06 A450
B20 | 0.06 A450
B21 | 0.06 A450
B22 | 0.06 A450
